Laboratory results as given in the nanobody polyreactivity screen of Harvey et al. (2022).

Test: yeast display, Sf9 membrane polyspecificity reagent, FACS + sequencing; frameworks hold sequencing errors
In short: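 Nanobodies from a synthetic yeast display library (Saccharomyces cerevisiae BJ5465), induced 36–48 hours with galactose, were stained 1 hour at 4 °C with 10% biotinylated, detergent-solubilized Sf9 membrane reagent, enriched on streptavidin microbeads, then FACS-sorted. Anti-HA (expression) and streptavidin (reagent binding) fluorescence set low and high (top ~1%) gates. Polyreactivity labels come from the gate of origin. Genes were colony-PCR amplified, MiSeq 2 × 250 sequenced and filtered by CDR length.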

Sequence	polyreactivity (PSR sort gate)
QVQLVESGGGLVQAGGSLRLSCAASGLIFRRYTMGRYRQATGKERELVAAISRGGASTSYADSVKGRFTISRDNAKNTVYLQMNSLIPEDTAVYYCAATSPRSSRTYAYDYWGQGTQVTVSS	high polyreactivity
QVQLVESGGGLVQAGGSLRLSCPASGRTFYLYAMGWYRQAPGKVRELVARISGGGGRTYYADSVKGRFTISRDNAKNTVYLQMNSLKPEDSAVYYCNAQSPRGFTTPRQVYPLNGYWGQGTQVTVSS	high polyreactivity
QVQLVESGGGLVQAGGSLRLSCAASGFIFAWYAMGWYRQAPGKERELVARISRGGSTYYADSVKGRFTISRDNAKNTVYLHMNSLKPEYTAVYYCTAGAAYTYTRYDYWGQGTQVTVSS	high polyreactivity
QVQLVESGGGLVQAGGSLRLSCAASGSIFAAYTMGWYRQAPGKQRELVAAISSGTRTNYADSVKGRFTISRDNAKNTVYLQLNSLKPEDTAVYYWNADVSALWWPEEWYNASEFDYWGQGTQVTVSS	low polyreactivity
QVQLVESGGGLVQAGGSLRLSCAASGLILYWYAMGWYRQAPGKERELVAVITRSGRTNYADSVKGRFTSSRDNAKNTVYLQMNSLKPEDTAVYYCAADYYTSFYSWPPYDYWGQGTQVTVSS	low polyreactivity
QVQLVESVGGLVQAGGSLRLSCAASGFIFGYNAMGWYRQAPGKERELVAAITSRGDRTYYADSVKGRFTISRDNAKNTVYLQMNSLKPEDTAVYYCAKATRGYRSPYCSIGYYYWGQGTQLTVSS	high polyreactivity
QVQLVESGGGLVQAGGSLRLSCAASGSTLQRYTMGLYRPAPGKERELDAAITQSGGSTFYADSVKGRFTISRDNAKNTVYLQMNSLKPEDTAVYYCAAKLTTGYYYGVPRDYWGQGTQVTVSS	high polyreactivity
QVQLVESGGGLVQAGGSLRLICAASGIIFHFNDMGWYRQAPGKERELVAAIDSTGSTNYADSVKGRFTISRDNAKNTVYLQMNSLKPEDTAVYYCAVLNHRVDSVLTRYYYWGQGTQVTVSS	low polyreactivity
QVQLVESVGGLVQAGGSLRLSCAASGFIFNWYAMGWYRQAPGKERELVAAITSGGSTNYADSVKGRFTISRDNAKNTVYLQMNSLKPEDTAVYYCAARDWRRYGYWGQGTQVTVSS	high polyreactivity
QVQHVESGGGLVQAVGSLRLSCSASGITFHYYTMGWYRQAPGKEREFVAAISKSGGRTYYADSVKGRFTISRDKAKNTVYLQMNSLKPEDTAVYYCAGLYYFNGDYWGEGTQVTVSS	high polyreactivity
QVQHVESGGGIVQAGGSLRLTCAASGSTFGGNGMGWYRQAPGKEREFVATNTWRSVSTYYADSVKGRFTISRDNAKNTDFLQMISLKPEDTAVYYCAARLYRFASYRMDYWGQGTQVTVSS	high polyreactivity
QVQLVESVGGLVQAGGSLRLSCAASGRIYVYVMGWYIQSPGKERELVAAITSGGSTYYADSVKGRFTISRDNAKNTDYLQMNSLKPEDTAVYYCAADVNGGYDYYYFVSIVYYWGQGTQVTVSS	low polyreactivity
QGQLVESGGALVQAGGTLRLSCAASGIIFSGNGMGWYRQAPGNVRELVAAITAGAGTNYADSVKGRFTISRDNAKNSVYLQMHSLKPEDPGVYYCAVDGRSVPAWWPRFDYWGQGTQVTVSS	low polyreactivity
QVQLVESGGGLVQAGGSLRLSFAASGSTFDNYAMGWYRQAPGKERELVAAIRRGGSTYYADSVKGRFTISRDNAKNTVYLQMNSLKPEDTAVYYCNAPITRFEGYFYWGQGTQVTVSS	high polyreactivity
QVQLVESGGGLVQAGGSLRLSCAASGRIFRFYAMGWYRQAPGKDRELVAAISSRGGSTYYADSVTGRFTISRDNAKNTVYLQMNSLKPEDTAVYYCAKRSQKAYKYRDYRFDYWGQGTQVTVSS	high polyreactivity
QVQLVESGGGLVQAGGSLRLSCAASGFITWGNAMGWYRQAPGKERELVAAISWRDARTYYADSVKGRFTISRDNAKNTVYLQMNSLKPEDTAVYYCNAVTAYVSRNLRGYRWFDYWGQGTQVTVSS	low polyreactivity
QVQLVESGGGLVQAGGTLRLSCAASGSILQYNAMGWYRQATVKVSELVAAISRTGGSTYYADSVKGRFTISRDIAMNNLYLQMNSLKPEDTAVYYCNVYLGILYKYDYWGQGNQVTVSS	low polyreactivity
QVQLVESGGGLVQEGGSLRLICAASGSTFKAYAMGWYRQAPGKERELVAAITNSDGDTYYADSVKGRFTISRDNAKNTVYLQMNSLKPEDRAVYYCNADDALRQTPDYNYWGQGTQVTVSS	low polyreactivity
QVQLVESGGGLVQAGGSLRLSCAASGSNFKTYVMGWSRQAPGKERELVAAITSSGGRTYYADSVKGRFTISRDNAKNSVYLQMNSLKPEDTAVYYCNTAPRWVGRNDYWGQGTQVTVSS	high polyreactivity
QVQLVESGGGLVQAGGSLRLSCAASGLIFLGYARGWYRQSPGKERELVASIRTGGSTSYADSVKGRFTISRDNAKNTVYLQMNSLKPEDTAVYYCAADRGRPNLPGDYWGQGTQVTVSS	low polyreactivity
QVQLVESGGGLVQAGGSLRLTCAASGSTFVPYVMGWYRQAPGKERELVAVITWTGGSTYYADSVKGRFTISRDNAKNTVYLQMNSLKPEDTAVYYCAAEYSPWFYFEQYDYWGQGTQVTVSS	low polyreactivity
EVQLVESGGGLVQAGGSLRLSCADSGGIFIFYALGWYRQAPWKEREFVASIRSNVGSTYYADSVKGRFTISRDNAKNTVYLQMNSLNPEDTAVYYCNSRYYWYRGYDYWGQGTQVTVSS	high polyreactivity

Sequence	polyreactivity (PSR sort gate)
QVQLVESGGGLVQAGGSLRLSCAASGSTFPWNAMGWYRQAPGKERELDAAIRTGGGRTYYADSVKGRFTISRDNAKNTVYLQMNSLKPEDTAVYYCNAYQSSGRYRNSYGYWGQGTQVTVSS	high polyreactivity
QVQLVESGGGLVQAGGSLRLSCAASGRTFYAYAMGWYRQAPGKERELVAAINTSGGRTYYADSVKGRFTISRDNAKNTVYLQMNSLKPEDTAVYYCAADVYTFYPRRYDYWGQGTQVTVSS	low polyreactivity
QVQLVESGGGLVQAGGSLRLSCAASGSTFHKYVMGWYRQAPGKEREFVAAISRRGTRTYYADSVKGRFTISRDNAKNTVYLQMNSLKPEDTAVYYCNVYYYRTYTHFLPGYEYWGQGTQVTVSS	high polyreactivity
QVQLVESGGGLVQAGGSLRLSCAASGSIFLRYAMGWYRQAPGKERELVATITSGGRTKYADSVKGRFTISRDNAKNTVYLQMNSLKPEDTAVYYCNAKTQSLKRSTFNYWGQGTQVTVSS	low polyreactivity
QVQLVESGGGLVQAGGSLRLSCAASGRTFTPNAMGWYRQAPGKERELVASIRRGTSTYYADSVKGRFTISRDNAKNTVYLQMNSLKPEDTAVYYCAAKSYHGYPFDYWGQGTQVTVSS	high polyreactivity
QFQLVESVGGLVQAGGSLRLSCAASGRTFVDYDMGCYRPAPGKERELVAAIRRGGSTTYEDSVKGRFTISRDNAKNTVYLQMNSLKPEDTAVYYCATDNTYGSDYWGQGTQVTVSW	high polyreactivity
QVQLVESGGGLVQAGGSLRLSCAASGNIFLRYAMGWYRQAPGKERELVAAISYSGGGSTYYADSVKGRFTISRDNAKNTVYLQMNSLKPEDTAVYYCAKVLTSRTQFFDYDYWGQGTQVTVSS	low polyreactivity
HVQLQERGGGLVQAGGSLRPSCAARGTISDGVPMGWYRQAPGEERELVATTVLGATTNYADSVKGRFTISRGNAKNTVYLQMNSLNPEETAVYYCAAPLRYDKGFSYWGQGTQVTVSS	low polyreactivity
QVQLVESGGGLVQAGGSLRLSCAASGLIFDTYAMGWYRQAPGKERELVADITWSGGSTYYADSVKGRFTISRDNAKNTVYLQMNSLKPEDTAVYYCAADSVSLFYWDQRYPDEYDYWGQGTQVTVSS	low polyreactivity
QDQLVESGGGLVQAGGSLRLSCAASGSTFTGYTMGWYRQAPGKERELVAAITYRGGSTYYADSVKGRFTISRDNAKNTVYLQMNSLKPEDTAVYYCAAVPEYYEYTPYDYWGQGTQVTVSS	low polyreactivity
QVQLVESGGGIVQAGGSLRLSCAASGRTFRYNTMGSYRQAPGKERELVAAINSRGGSTYYADSVKGRFTISRDNAKNTVYLQMNSLKPEDTAVYYCAALTRYNTASGYDYWGQGTQVTVSS	high polyreactivity
QVQLVESGGGLVQAGRSLRLSCAASGRIFQWNAMGWYRQAPGKERELVADITYSGSSTNYADSVKGRFTISRDNAKNSVYLQMNSVKPEVSAVYYCTRDFYQYLSYFWHYVYWGQGTQETVSS	low polyreactivity
QVEVVESGGGLVQAGGSLRLSCAASGRNFRFNAMGWYRQAPGKERELVAAISFRGGSTYYADTVKGRFTISRDNAKNTVYGQINSLKPEDPAVYYCAARARTGTYRDMYYWGQGTQVTVSS	high polyreactivity
QVQHVESGGGLVQAGGSLRLSSAASGSIIGYYAMGWYRQAHGKERELVAAITWSGGRTYYADSVKGRFTISRDNAKNTVYFQMNSLKPEDTAVYYSNAANSRSAYYNWGHGTQVTVSS	high polyreactivity
QVQLVESGGGLVQAGGSLRLSCAASGRIWSRYAMGWYRQAPGKERELVAAITQSGTSTYYADSVKGRFTFSRDNAKNTVYLQMNSLKPEDTAVYYCNAYRQYRYDYWGQGTQVTVSS	low polyreactivity
QVQLVESGGGLVQAGGSLRLSCAASGSTFYNYAMGWYRQAPGKERELVAAISSGGGITYYADSVKGRFTISRDNAKNTVYLQMNSLKPEDTAVYYCNVVNYYPKGNNRAQYWFNYWGQGTQVNVSS	high polyreactivity
QVQLVESGGGLVQAGGSLRLSCAASGRIFYVYAMGWYRQAPGKERELVAAITWRGGTTYYADSVKGRFTISRDNAKNTVYLQMNSLKPEDTAVYYCNAKYFRSYYSIEYDYWGQGTQVTVSS	low polyreactivity
QVQLVESGGGLVQAGGSLRLSCAATGSIIPFYAMGWYRQATGKEREFVAAISRTGGNTYYADSVKGLLTISRDNAKNTVYLQMNSLKPEDTAVYFCATKRKWTYLSFDYWGQGTQVTVSS	low polyreactivity
QVQLVESGGGLVQAGGSLRLSCAASGRTFGKNAMGWYRQAPGKEMEFVAAITSRGGSTYYADSVKGRFTISRDNAKNTVYLQLNSLIPVDTAVYYCYGEYKRPSQRTEHYYWGQGSQVTVSS	low polyreactivity
QVQLVESGGGSVQAGGSLRLSCAASGFIFDGYTMGWYRQAPGKERELVAAISRSGGRTYYADSVKGRFTISRDNAKHTVYLQLNSLKPEDTAVYYCAVRYRQYSQTVASDYGYWGQGTQVTVSS	high polyreactivity
QVQLVESGGGLVQAGGSLRLSCAASGRSIWYYTMGWYRQAPGKERQFFAAITTSGGSTTYADSVKGRYTISRDTAKNTVFLQRNSLKPEDSAVYYCAARVYHGKSKYDYWGQGSQVTVSS	high polyreactivity
